How the values were obtained:
[1] = molecular target: FRB domain of human mTOR / FKBP-12 (FRB-NLuc/CLuc-FKBP LCI pair) (Homo sapiens, UniProt P42345+P62942); test: Luciferase complementation imaging (LCI) of rapamycin-induced FRB/FKBP association in live HEK-293 cells; type: cell-based; conditions: HEK293, read-out: EC90 of rapamycin; HEK-293 cells transfected with FRB-NLuc/CLuc-FKBP
Protocol: Data, expressed as mean photon flux±SEM of quadruplicate wells, are representative of three independent tests.
HEK-293 cells were cultured in Dulbecco's Modified Eagle Medium (DMEM), (Life Technologies, 2575 University Ave. W., St. Paul, Minn. 55114 USA) supplemented with 10% fetal calf serum (FCS), 1% glutamine, 0.1% P/S, 0.1% fungizone. Cells (3×10^6/10 cm dish or 1.5×10^5 per 35 mm dish) were transiently co-transfected with pairs of plasmids as indicated using FuGene-6 (Roche) according to the manufacturers directions.

[2] = system: Cdc25C-NLuc/CLuc-14-3-3ε LCI pair; test: LCI of Cdc25C/14-3-3ε interaction in HEK-293 cells; type: cell-based, human; conditions: UCN-01 1 μM, 6 hrs
Protocol: HEK-293 cells transfected with Cdc25C-NLuc/CLuc-14-3-3ε or mutant S216A Cdc25C-NLuc/CLuc-14-3-3ε were treated with vehicle alone or UCN-01 (1 μM) for 6 hrs prior to LCI. Data are expressed as percent of bioluminescence relative to untreated Cdc25C-NLuc/CLuc-14-3-3ε in cells and represent the mean±SEM of three independent experiments, n=4 each.
To replace the FRB with human Cdc25C or human p91 STAT1 (J. E. Darnell Jr., The Rockefeller University, 1230 York Avenue, NY, N.Y. 10021, USA.) in the NLuc fusion vector, open reading frames of these cDNAs were amplified by PCR using 5′ primers containing a BamHI site and Kozak consensus sequence upstream of the start site and 3′ primers which reconstituted the linker region up to the BsiWI site. FRB was replaced using the BamHI and BsiWI sites. FKBP was similarly replaced with 14-3-3ε or STAT1 using BsiWI at the 3′ end and EcoRV at the 5′ end.
Cells (1×10^4/well in 100 μl media) were transferred to 96-well black walled plates 16-24 hrs after transfection. At the times indicated, growth media was replaced with media containing appropriate drugs or vehicles. To image live cells, D-luciferin (10 μl of 1.5 mg/ml in PBS) was added to wells. Photon flux for each well was measured 8-10 min after addition of D-luciferin with an IVIS CCD camera (1 min exposure, f-stop=1, binning 8, FOV 15 cm). […]

[3] = system: phosphorylation of Cdc25C-NLuc on S216; test: Western blot of phospho-S216 Cdc25C-NLuc in HEK-293 cells; type: cell-based, human; conditions: UCN-01 1 μM, 6 hrs
Protocol: Cells were left untreated or treated with UCN-01 (1 μM) for 6 hrs prior to lysis, processed for Western analysis and then probed with the antibodies indicated to visualize expression, phosphorylation, and the effect of UCN-01 on the LCI constructs.
Cells (3×10^6/10 cm dish) were transfected with the indicated plasmids (6 μg each). Media was removed 6 hrs prior to lysis and replaced with media containing UCN-01 at the concentrations indicated. Cells were washed with PBS and lysed by incubation for 30 min at 4° C. with 1 ml RIPA buffer containing protease inhibitors (50 mM tris-HCl, pH 7.4, 1% NP-40, 0.25% deoxycholic acid, 150 mM NaCl, 1 mM EDTA, 1 mM each PMSF, sodium orthovanadate, and NaF, 1 μg/ml each leupeptin, aprotinin, pepstatin). After centrifugation to remove insoluble material, protein concentration was determined by BCA (Pierce Biotechnology, Inc., Customer Service Department, P.O. Box 117, Rockford, Ill. 61105 U.S.A). The Bicinchoninic Acid (BCA) test to determine protein concentration is a highly sensitive alternate assay to the Lowry assay.
Proteins (200 μg) were separated by SDS-PAGE and analyzed using polyclonal primary antibodies against pGL3 luciferase (Promega US, 2800 Woods Hollow Road, Madison Wis. 53711, USA) or phospho-S216-Cdc25C (Santa Cruz Biotechnologies, 2145 Delaware Avenue, Santa Cruz, Calif. 95060, U.S.A.). […]

[4] = system: Y701F mutant STAT1 LCI pair; test: Bioluminescence of nuclear extracts of cells expressing the Y701F mutant STAT1 LCI pair; type: cell-based, human; conditions: IFN-γ 20 min, 100 U/ml, HEK-293
Protocol: (§1) HEK-293 cells were transiently transfected with STAT1-NLuc/CLuc-STAT1, the Y701F STAT1 mutant LCI pair, or intact luciferase. Forty-eight hours after transfection, cells were left untreated or treated with IFN-γ (1000 U/ml for 20 min) (n=3 for each) and then extracts prepared. To measure bioluminescence in extracts, an assay buffer including D-luciferin and ATP (Luciferase Assay Buffer, Promega, USA) was added to duplicate samples of each extract. Bars show the ratio +/−SEM of mean photon flux/μg protein for extracts of IFN-γ treated over untreated cells. […] Duplicate determinations are vertically arranged with independent extracts arrayed horizontally.
To confirm that phosphorylated STAT1 LCI pairs were biologically functional, the inventors measured the IFN-γ-inducible nuclear accumulation of bioluminescence activity. Cytoplasmic and nuclear extracts were prepared from untreated and IFN-γ-treated HEK-293 cells transiently co-transfected with the STAT1-NLuc/CLuc-STAT1 LCI pair, the Y701F mutant pair, or intact luciferase. […] Western blots of the cytoplasmic and nuclear extracts used in FIG. 16. confirmed purity of the extracts, neither fraction showing cross-contamination as assessed by the marker proteins β-tubulin (cytoplasm) and Topo II (nucleus), respectively (data not shown). […]

[5] = system: STAT1-NLuc, CLuc-STAT1, endogenous p91 and p84 STAT1 phosphorylation; test: Western blot of Y701 phosphorylation of STAT1 reporters and endogenous STAT1 in HEK-293 cells; type: cell-based, human; conditions: IFN-γ 1000 U/ml, 30 min
Protocol: Cells were left untreated or treated with IFN-γ (1000 U/ml) for 30 min prior to lysis, processed for Western analysis and then probed with the antibodies indicated to visualize expression and IFN-γ-induced phosphorylation of STAT1-NLuc (grey arrows), CLuc-STAT1 (black arrows), and endogenous p91 and p84 STAT1 (unfilled arrows). Intact luciferase expression (hatched arrow) is also shown. Note that while STAT1-NLuc could not be visualized using the STAT1 antibody, the fusion could be visualized with both Luc and phospho-STAT1 antibodies.

[6] = system: STAT1-NLuc/CLuc-STAT1 LCI pair; test: LCI of STAT1-NLuc/CLuc-STAT1 in intact transduced cells (HEK-293, 2ftgh, U3A); type: cell-based, human; conditions: any time or any dose
Protocol: Each transduced cell line was sorted by FACS for expression of appropriate fluorescence markers (EGFP and mRFP) to enrich for cells carrying the imaging constructs. These enriched populations were seeded in a 96-well format (10^4 cells/well), and left untreated or treated with […] (1000 U/ml for 30 min). Bars represent the mean +/−SEM (n=4) for a representative test. Note the y-axis log scale.
The STAT1-NLuc and CLuc-STAT1 open reading frames were cloned into lentiviral vectors (gift of J. Milbrandt, Washington University in St. Louis, One Brookings Drive, St. Louis, Mo. 63130, USA ) downstream of a CMV promoter and upstream of an IRES linked to EGFP (Clontech) or mRFP (R. Tsien, UCSD), respectively.
Cells (1×10^4/well in 100 μl media) were transferred to 96-well black walled plates 16-24 hrs after transfection. At the times indicated, growth media was replaced with media containing appropriate drugs or vehicles. To image live cells, D-luciferin (10 μl of 1.5 mg/ml in PBS) was added to wells. Photon flux for each well was measured 8-10 min after addition of D-luciferin with an IVIS CCD camera (1 min exposure, f-stop=1, binning 8, FOV 15 cm). Cell lyastes used for imaging were prepared using Reporter Lysis Buffer (Promega US, 2800 Woods Hollow Road, Madison Wis. 53711, USA) according to the manufacturers directions.

[7] = system: STAT1-NLuc/CLuc-STAT1 LCI pair (nuclear accumulation); test: Bioluminescence of nuclear extracts of cells expressing STAT1-NLuc/CLuc-STAT1; type: cell-based, human
Protocol: as §1, with “Forty-eight hours after transfection, cells were left untreated or treated with IFN-γ (1000 U/ml for 20 min) (n=3 for each) and then extracts prepared.” left out
To confirm that phosphorylated STAT1 LCI pairs were biologically functional, the inventors measured the IFN-γ-inducible nuclear accumulation of bioluminescence activity. Cytoplasmic and nuclear extracts were prepared from untreated and IFN-γ-treated HEK-293 cells transiently co-transfected with the STAT1-NLuc/CLuc-STAT1 LCI pair, the Y701F mutant pair, or intact luciferase. […] Western blots of the cytoplasmic and nuclear extracts used in FIG. 16. confirmed purity of the extracts, neither fraction showing cross-contamination as assessed by the marker proteins β-tubulin (cytoplasm) and Topo II (nucleus), respectively (data not shown). Western blots also confirmed virtually identical expression levels of wild-type and Y701F mutant LCI pairs as well as appropriate phosphorylation of STAT1 proteins and reporters (data not shown).

FRB domain of human mTOR / FKBP-12 (FRB-NLuc/CLuc-FKBP LCI pair), sequence (P42345 2024-2113): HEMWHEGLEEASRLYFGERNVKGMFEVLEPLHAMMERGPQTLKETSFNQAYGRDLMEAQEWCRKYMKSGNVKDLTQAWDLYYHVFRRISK
FRB domain of human mTOR / FKBP-12 (FRB-NLuc/CLuc-FKBP LCI pair), sequence (P62942 2-108): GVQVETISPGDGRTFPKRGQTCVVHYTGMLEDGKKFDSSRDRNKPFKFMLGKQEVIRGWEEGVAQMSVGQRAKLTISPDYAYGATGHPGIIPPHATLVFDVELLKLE

Molecule: CO[C@H]1C[C@@H]2CC[C@@H](C)[C@@](O)(O2)C(=O)C(=O)N2CCCC[C@H]2C(=O)O[C@H]([C@H](C)C[C@@H]2CC[C@@H](O)[C@H](OC)C2)CC(=O)[C@H](C)/C=C(\C)[C@@H](O)[C@@H](OC)C(=O)[C@H](C)C[C@H](C)/C=C/C=C/C=C/1C [rapamycin]
- EC90 [1]: 80 nM

Molecule: CN[C@@H]1C[C@H]2O[C@@](C)([C@@H]1OC)n1c3ccccc3c3c4c(c5c6ccccc6n2c5c31)C(=O)N[C@@H]4O [UCN-01]
- effect on bioluminescence of Cdc25C-NLuc/CLuc-14-3-3ε [2]: decreased bioluminescence
- effect on phosphorylation of Cdc25C-NLuc on S216 [3]: reduction in phosphorylation

B1: IFN-γ: interferon-γ, activates JAK1-mediated phosphorylation of STAT1 on Y701 (protein, UniProt P01579 24-161, looked up)
Interferon gamma: QDPYVKEAENLKKYFNAGHSDVADNGTLFLGILKNWKEESDRKIMQSQIVSFYFKLFKNFKDDQSIQKSVETIKEDMNVKFFNSNKKKRDDFEKLTNYSVTDLNVQRKAIHELIQVMAELSPAAKTGKRKRSQMLFRG
- nuclear bioluminescence in extracts of cells with mutant STAT1 LCI pair [4]: No such IFN-γ-induced increase
- phosphorylation of STAT1-NLuc, CLuc-STAT1 and endogenous p91 and p84 STAT1 [5]: resulted in phosphorylation
- effect on bioluminescence of co-transduced intact cells [6]: failed to change bioluminescence
- bioluminescence (photon flux/μg protein) in nuclear extracts of HEK-293 cells ([7]; IFN-γ 20 min): specifically increased
- increase in bioluminescence of nuclear extracts of U3A cells ([7]; IFN-γ 30 min, n=3): 6 fold

Reference: patent US7442518B2, “Imaging regulated protein-protein interactions in cells and living animals by enhanced luciferase protein fragment complementation” (Washington University, priority 2003, dated 2008)
